A short description of this series: protein stability index of a GFP-peptide fusion (GPS, HEK-293T) (PSI 1-6); higher = more stable.
[1] abbreviates: treatment: DMSO, c terminus: a fixed tail appended.
Where [2] appears, read: treatment: MLN4924 1 uM, 8 h, c terminus: a fixed tail appended.

± gives the standard deviation.

49 sequences from the supplement of paper PMC10567573 can be followed below.
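Further: 24-mer peptide tiles fused after GFP, lentivirally expressed, FACS-sorted into six equal bins by GFP/DsRed ratio, decoded by Illumina sequencing, PSI is the read-weighted mean bin number.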

VVFHCEFSSERGPRMCRYVRERDR [CDC25A]: the protein stability index is 2.41 ± 0.56 under setting [1] and 2.4 ± 0.3 under setting [2].

Consider VVHEDFREDILSCYDVYSPDKEEQ [PKD2L1], for which the protein stability index is, setting by setting: under setting [1], 4.7 ± 0.33; under setting [2], 4.69 ± 0.082. VVRGGEVVHRSDEQQHYFNTPFQL [PPTC7] showed a protein stability index under setting [1] of 3.26 ± 0.47 and a protein stability index under setting [2] of 3.43 ± 0.24. For VVTAEAVAVLKGEQEKEAQHKDQT [MAP2], the protein stability index reads like this: under setting [1], 5.49 ± 0.12; under setting [2], 5.28 ± 0.21.

Consider VVVCQCGLSIPSHSSELTEQKLRA [RPAIN], for which the protein stability index is, setting by setting: under setting [1], 2.1 ± 0.43; under setting [2], 2.36 ± 0.38. For VVYSCVEGKMYTARKGKGAFCNGQ [IMPA1] the same measures were 2.33 ± 0.27 and 2.36 ± 0.13. Take VWAHNLIAIARLRGSDLKVLEVTE [FBXO33]: the protein stability index is, setting by setting: under setting [1], 2.63 ± 0.85; under setting [2], 2.95 ± 1.1. Consider VYPKEFHLNRGNHEDHMVNLRYGF [PPEF2], for which the protein stability index runs as follows: under setting [1], 2.69 ± 0.29; under setting [2], 2.71 ± 0.36. Consider WDLVSASVVCRELGFGSAKEAVTG [LOXL2], for which the protein stability index runs as follows: under setting [1], 2.58 ± 0.31; under setting [2], 2.61 ± 0.089.

With WGFVHPRLLSVPELCHHVAEVWVS [RETREG3], the protein stability index reads like this: under setting [1], 3.04 ± 0.64; under setting [2], 2.63 ± 0.57.

In the case of WKESKGKDREYTDIIRKQVLGTKV [CDC34], the protein stability index runs as follows: under setting [1], 3.66 ± 0.17; under setting [2], 3.7 ± 0.4. On to WKKLVLVDRNTRPGPQDPEESASR [ELOA2], for which the protein stability index runs as follows: under setting [1], 4.28 ± 0.16; under setting [2], 4.46 ± 0.11. The like results for WLAVDGLVSPSNNSKEDAFSGTDW [ATF4] were, in that order, 3.76 ± 0.19 and 3.76 ± 0.27. Regarding WNMDKYTMIRKLEGHHHDVVACDF [WSB1], the protein stability index is 2.38 ± 0.19 under setting [1] and 2.58 ± 0.33 under setting [2]. Consider WRMLTYKALNTFIDDLFAFVIKMP [CLPTM1], for which the protein stability index under setting [1] was found to be 2.95 ± 0.4 and the protein stability index under setting [2] is 2.96 ± 0.7.

Turning to WSECSRTCGEGYQFRVVRCWKMLS [ADAMTSL2], the protein stability index is, setting by setting: under setting [1], 3.1 ± 1.8; under setting [2], 2.19 ± 0.34. The like results for WTQATGLGCALLAAHAVVLCALPV [SOAT2] were, in that order, 3.18 ± 0.35 and 2.97 ± 0.095. For WVDITDVPPGDYLFQVVINPNFEV [LOXL2] the same measures were 2.94 ± 0.71 and 2.91 ± 0.98. In the case of YCDLPQLFQLSCSSTQLNELLLFA [OR3A1], the protein stability index was determined as 2.61 ± 0.36 under setting [1] and 2.64 ± 0.57 under setting [2]. Take YDPFRDAVTLRCGHNFCRGCVSRC [TRIM35]: the protein stability index stood at 2.69 ± 0.46 under setting [1] and 2.74 ± 0.4 under setting [2]. For YFDPLRNEYFFDRNRPSFDAILYY [KCNA3] the same measures were 2.62 ± 0.54 and 2.44 ± 0.32. In turn, YFTDLFDYLPLTALVDGQIFCLHG [PPP2CA] had a protein stability index under setting [1] of 3.22 ± 0.39 and a protein stability index under setting [2] of 2.91 ± 0.3.

The sequence YGCKVADIKKVNNFIREQDLYALK [LYSMD4] displayed a protein stability index under setting [1] of 2.27 ± 0.22 and a protein stability index under setting [2] of 2.39 ± 0.21. The like results for YGLDSVKKKCLEWLLNNLMTHQNV [GMCL1] were, in that order, 3.09 ± 0.26 and 2.73 ± 0.21.

In turn, YILELDDGNGGQFREVYVGKETMC [TRIM9] displayed a protein stability index under setting [1] of 2.28 ± 0.11 and a protein stability index under setting [2] of 2.29 ± 0.16. For YILLVGYPPFWDEDQHRLYQQIKA [CAMK2D] the same measures were 2.46 ± 0.099 and 2.54 ± 0.67. The like results for YKNIKRPPGDIMFLLVQRFGELMR [USP39] were, in that order, 2.29 ± 0.16 and 2.14 ± 0.17. Regarding YLCFLLAVLLQLYVATEAILIALV [SLC22A15], the protein stability index by setting is: under setting [1], 2.64 ± 0.38; under setting [2], 2.51 ± 0.63. For the sequence YLCKRVPHTVLDRQLLCLIDYYES [CEP70], the protein stability index is 2.1 ± 0.58 under setting [1] and 2.21 ± 0.32 under setting [2]. For the sequence YLKKNHEEEMNALRGQVGGEINVE [KRT17], the protein stability index by setting is: under setting [1], 4.39 ± 0.23; under setting [2], 4.75 ± 0.12. As for YLLQWLKSDKALMMLFNDGTFQVN [PLK2], the protein stability index runs as follows: under setting [1], 2.73 ± 0.53; under setting [2], 2.53 ± 0.51. For YLSPRDFLSGLAFRVFHCTQYVRH [TPH1] the same measures were 2.31 ± 0.2 and 2.08 ± 0.17.

Regarding YNIATRRKALKNPSEEYGKILEVV [MLH1], the protein stability index under setting [2] was 2.74 ± 0.48. Turning to YNIKLEGKVPMHKLFLEMLEAKV [ESRRG], the protein stability index was found to be 2.83 ± 1.5 (treatment: DMSO, c terminus: native) and 2.43 ± 1 (treatment: MLN4924 1 uM, 8 h, c terminus: native). On to YNYMMGIEFNPRIGKWFDFKLFFN [DHCR7], for which the protein stability index worked out at 2.52 ± 0.53 under setting [1] and 2.23 ± 0.33 under setting [2]. Consider YPHTRIQSLVSILRTTVHHAFPVV [CLCN6], for which the protein stability index is, setting by setting: under setting [1], 2.42 ± 0.57; under setting [2], 2.14 ± 0.15. Turning to YQNELHKFLIWDTAGQERFRALAP [RAB22A], the protein stability index was determined as 2.29 ± 0.045 under setting [1] and 2.46 ± 0.37 under setting [2].

On to YQQLCIYWTKYYDFKNPIIEKYLR [OAS1], for which the protein stability index is, setting by setting: under setting [1], 2.92 ± 0.53; under setting [2], 2.46 ± 0.7. The like results for YQSYFKTIEELQQKILCAKAENAR [KRT34] were, in that order, 2.46 ± 0.33 and 2.86 ± 0.5. Turning to YQYIQSRFYRSPEVLLGTPYDLAI [DYRK1B], the protein stability index was determined as 2.18 ± 0.41 under setting [1] and 2.29 ± 0.35 under setting [2]. The like results for YRKQNAYIATQGSLPETFGDFWRM [PTPRD] were, in that order, 2.54 ± 0.39 and 2.12 ± 0.08. For the sequence YSSEMKTEDELRVRHLEEENRGIV [AUH], the protein stability index amounted to 4.78 ± 1 under setting [1] and 5.35 ± 0.86 under setting [2].

The sequence YSYASTHRLMTDARRRVCHTEDFQ [CPXM2] displayed a protein stability index under setting [1] of 2.91 ± 0.37 and a protein stability index under setting [2] of 3.44 ± 0.36. For the sequence YSYMSPNKCSGMRFPLQEENSVTH [KMT5A], the protein stability index by setting is: under setting [1], 3.35 ± 0.25; under setting [2], 3.14 ± 0.1. For YSYVYQDGLRLLGARARGVAMLGV [SOAT2] the same measures were 2.55 ± 0.59 and 2.25 ± 0.21. For YVATEAILIALVGATPSYHWDLAE [SLC22A15], the protein stability index by setting is: under setting [1], 3.01 ± 0.39; under setting [2], 3.27 ± 0.31. For YVRLVCKDVRAPSRPAVGPPQPGC [ZSWIM9] the same measures were 2.22 ± 0.23 and 2.4 ± 0.27. As to YYFIMACDQYSCALTGPVVDIVTG [DHCR7], the protein stability index is, setting by setting: under setting [1], 3.35 ± 0.17; under setting [2], 3.26 ± 0.53.

The sequence YYYTKVMSELFLHTPSDTGVSFQA [PKD2L1] showed a protein stability index under setting [1] of 2.74 ± 0.59 and a protein stability index under setting [2] of 2.67 ± 0.64.
